The results in this text go back to PMC3799434, “RNA polymerase III-specific general transcription factor IIIC contains a heterodimer resembling TFIIF Rap30/Rap74” (Nucleic Acids Research, 2013).

Data set [1] has as its target T1, Sfc1 186-283 (winged helix, lacks WHI) (Schizosaccharomyces pombe, UniProt O14229 186-283).
T1 sequence: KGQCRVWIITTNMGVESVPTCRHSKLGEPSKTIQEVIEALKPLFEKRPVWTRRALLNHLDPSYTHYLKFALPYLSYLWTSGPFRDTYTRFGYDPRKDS
As to the kind of experiment: filter binding. As to conditions: Buffer D: 20 mM Tris-HCl pH 7.5, 200 mM KCl, 2 mM MgCl2, 10 mM DTT, 25 C (EMSA and nitrocellulose filter binding). Background: A gel shift assay detects complexes by their altered migration in electrophoresis.

The target of a further data set is T2, Sfc1-DBD R237A (Schizosaccharomyces pombe, UniProt O14229 186-396, R237A).
T2 sequence: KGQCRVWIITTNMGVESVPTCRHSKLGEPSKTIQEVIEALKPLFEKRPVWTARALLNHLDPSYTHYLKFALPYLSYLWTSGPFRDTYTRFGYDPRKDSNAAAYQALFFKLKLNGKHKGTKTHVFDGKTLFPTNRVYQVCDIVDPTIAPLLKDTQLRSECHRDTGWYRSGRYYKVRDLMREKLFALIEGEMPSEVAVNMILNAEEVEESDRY
As to the kind of experiment: filter binding; Buffer D: 20 mM Tris-HCl pH 7.5, 200 mM KCl, 2 mM MgCl2, 10 mM DTT, 25 C (EMSA and nitrocellulose filter binding). As to conditions: protein: recombinant; tags: N-terminal His-tag, TEV-cleaved; label: 32P; blunt.

A further data set concerns the target T3, Sfc1-DBD K294A (Schizosaccharomyces pombe, UniProt O14229 186-396, K294A).
T3 sequence: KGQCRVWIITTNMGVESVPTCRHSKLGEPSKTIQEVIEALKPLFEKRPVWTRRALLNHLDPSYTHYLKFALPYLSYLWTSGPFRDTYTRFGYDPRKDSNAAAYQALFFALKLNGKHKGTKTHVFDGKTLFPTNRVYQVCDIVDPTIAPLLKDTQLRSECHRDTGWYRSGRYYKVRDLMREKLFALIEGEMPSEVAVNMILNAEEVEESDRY
Described as above. As to conditions: protein: recombinant; tags: N-terminal His-tag, TEV-cleaved; label: 32P; blunt.

Another data set concerns the target T4, Sfc1-DBD R269A (Schizosaccharomyces pombe, UniProt O14229 186-396, R269A).
T4 sequence: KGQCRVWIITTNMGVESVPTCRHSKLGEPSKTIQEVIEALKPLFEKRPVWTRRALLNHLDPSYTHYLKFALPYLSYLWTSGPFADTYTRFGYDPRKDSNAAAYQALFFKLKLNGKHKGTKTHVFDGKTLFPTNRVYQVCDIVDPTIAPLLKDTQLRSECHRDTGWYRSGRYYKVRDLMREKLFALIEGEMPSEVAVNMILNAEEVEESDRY
The description is as above. As to conditions: protein: recombinant; tags: N-terminal His-tag, TEV-cleaved; label: 32P; blunt.

The target in the next data set is T5, Sfc1-DBD R269A/K294A (Schizosaccharomyces pombe, UniProt O14229 186-396, R269A;K294A).
T5 sequence: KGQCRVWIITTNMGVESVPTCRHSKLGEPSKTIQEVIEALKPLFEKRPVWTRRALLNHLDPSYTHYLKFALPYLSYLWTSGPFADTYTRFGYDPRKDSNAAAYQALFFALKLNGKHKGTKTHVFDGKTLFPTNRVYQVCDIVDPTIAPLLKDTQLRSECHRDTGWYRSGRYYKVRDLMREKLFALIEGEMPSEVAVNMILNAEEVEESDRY
The description is as above. As to conditions: protein: recombinant; tags: N-terminal His-tag, TEV-cleaved; label: 32P; blunt.

The target in data set [2] is T6, Sfc1 1-396;Sfc7 full length (Schizosaccharomyces …, UniProt O14229;A6X980 1-396;1-120, |).
T6 sequence 1: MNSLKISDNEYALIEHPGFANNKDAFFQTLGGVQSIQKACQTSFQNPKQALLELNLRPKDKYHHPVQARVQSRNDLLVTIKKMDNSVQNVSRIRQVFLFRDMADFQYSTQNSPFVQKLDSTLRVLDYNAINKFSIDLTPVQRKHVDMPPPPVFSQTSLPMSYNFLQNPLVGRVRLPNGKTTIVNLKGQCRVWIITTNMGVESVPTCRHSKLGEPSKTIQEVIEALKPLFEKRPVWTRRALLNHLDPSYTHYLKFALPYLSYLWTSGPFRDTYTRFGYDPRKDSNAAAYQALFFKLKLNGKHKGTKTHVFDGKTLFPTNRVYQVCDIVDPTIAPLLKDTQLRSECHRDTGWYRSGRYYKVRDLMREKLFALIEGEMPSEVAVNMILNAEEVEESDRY
T6 sequence 2: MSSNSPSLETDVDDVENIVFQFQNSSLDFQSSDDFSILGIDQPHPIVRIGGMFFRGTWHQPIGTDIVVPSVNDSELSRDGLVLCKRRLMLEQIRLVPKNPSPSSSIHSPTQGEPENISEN
The data set is described as above. As to conditions: protein: recombinant;recombinant; tags: N-terminal His-tag, TEV-cleaved;; copies: 1;1; label: 32P; blunt.

The next data set has as its target T7, Sfc1 111-456 (Schizosaccharomyces pombe, UniProt O14229 111-456).
T7 sequence: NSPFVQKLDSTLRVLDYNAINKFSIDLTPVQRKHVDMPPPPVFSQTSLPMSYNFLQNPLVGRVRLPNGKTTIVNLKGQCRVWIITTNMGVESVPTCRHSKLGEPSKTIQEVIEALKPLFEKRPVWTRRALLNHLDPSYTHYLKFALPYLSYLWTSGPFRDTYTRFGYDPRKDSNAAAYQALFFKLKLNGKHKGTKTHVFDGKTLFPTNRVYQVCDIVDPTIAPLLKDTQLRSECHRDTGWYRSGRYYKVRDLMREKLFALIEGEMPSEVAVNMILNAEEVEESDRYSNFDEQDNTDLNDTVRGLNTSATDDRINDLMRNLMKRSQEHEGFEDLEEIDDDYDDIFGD
Described as above. As to conditions: protein: recombinant; tags: N-terminal His-tag, TEV-cleaved; label: 32P; blunt.

A further data set has as its target T8, Sfc1 186-456 (Schizosaccharomyces pombe, UniProt O14229 186-456).
T8 sequence: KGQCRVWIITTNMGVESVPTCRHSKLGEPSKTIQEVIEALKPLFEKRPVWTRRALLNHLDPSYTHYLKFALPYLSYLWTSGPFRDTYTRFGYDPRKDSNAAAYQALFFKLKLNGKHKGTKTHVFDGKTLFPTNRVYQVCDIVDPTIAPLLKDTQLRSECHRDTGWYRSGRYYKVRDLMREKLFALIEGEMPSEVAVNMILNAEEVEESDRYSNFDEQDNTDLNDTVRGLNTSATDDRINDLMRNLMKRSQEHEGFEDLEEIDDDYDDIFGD
Described as above. As to conditions: protein: recombinant; tags: N-terminal His-tag, TEV-cleaved; label: 32P; blunt.

Data set [3] has as its target T9, Sfc1 full length;Sfc7 full length (Schizosaccharomyces …, UniProt O14229;A6X980 1-456;1-120, |).
T9 sequence 1: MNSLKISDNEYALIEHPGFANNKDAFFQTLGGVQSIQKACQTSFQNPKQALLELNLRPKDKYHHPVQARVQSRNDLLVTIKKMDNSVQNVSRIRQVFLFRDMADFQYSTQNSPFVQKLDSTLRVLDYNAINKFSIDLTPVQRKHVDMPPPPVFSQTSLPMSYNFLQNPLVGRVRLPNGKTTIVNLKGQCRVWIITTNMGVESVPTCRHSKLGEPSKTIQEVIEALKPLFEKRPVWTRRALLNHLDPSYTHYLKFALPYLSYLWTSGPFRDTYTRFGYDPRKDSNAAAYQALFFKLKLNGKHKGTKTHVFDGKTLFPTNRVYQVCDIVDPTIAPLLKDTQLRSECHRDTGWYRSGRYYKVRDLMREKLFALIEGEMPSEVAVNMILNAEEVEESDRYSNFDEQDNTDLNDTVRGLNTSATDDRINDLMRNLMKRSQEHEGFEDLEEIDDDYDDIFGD
T9 sequence 2: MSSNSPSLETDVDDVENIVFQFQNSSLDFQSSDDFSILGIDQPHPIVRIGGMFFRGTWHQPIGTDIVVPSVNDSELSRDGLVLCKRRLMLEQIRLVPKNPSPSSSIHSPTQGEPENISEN
The description is as above. As to conditions: protein: recombinant;recombinant; tags: N-terminal His-tag, TEV-cleaved;; copies: 1;1; label: 32P; blunt.

The target in data set [4] is T1, Sfc1 186-283 (winged helix, lacks WHI). Described as above. As to conditions: protein: recombinant; tags: N-terminal His-tag, TEV-cleaved; label: 32P; blunt.
For data set [5], the target named is T10, Sfc7 (S. pombe TFIIIC τA subunit), full length (Schizosaccharomyces pombe, UniProt A6X980 1-120).
T10 construct: Sfc7, Schizosaccharomyces pombe, full length (Mr = 13.3 kDa); cloned into pCDF-MCN; PDB 4BJJ holds residues 1-101; also called orthologue of S. cerevisiae τ55 (Tfc7) and human TFIIIC35; source: E. coli BL21 (DE3) RIPL, co-expressed with Sfc1, purified (Ni-NTA, TEV, second Ni-NTA, Mono Q, Superdex S200)
T10 sequence (looked up): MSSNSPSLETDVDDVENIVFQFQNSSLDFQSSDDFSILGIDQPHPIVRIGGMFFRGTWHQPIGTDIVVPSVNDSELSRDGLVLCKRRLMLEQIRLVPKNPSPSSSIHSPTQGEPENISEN
As to the kind of experiment: ion-exchange chromatography; fragments from limited proteolysis of the purified Sfc1/Sfc7 heterodimer, separated by ion-exchange chromatography. As to conditions: both partners purified.

The next data set addresses T11, Sfc1-DBD (Schizosaccharomyces pombe, UniProt O14229 186-396).
T11 sequence: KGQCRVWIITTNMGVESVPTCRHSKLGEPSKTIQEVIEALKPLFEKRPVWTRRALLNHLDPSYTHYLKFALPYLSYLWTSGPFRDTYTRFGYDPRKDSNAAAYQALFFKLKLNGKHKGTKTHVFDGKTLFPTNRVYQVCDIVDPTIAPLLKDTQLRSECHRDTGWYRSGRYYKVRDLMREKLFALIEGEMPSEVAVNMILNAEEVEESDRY
As to the kind of experiment: unspecified (data not shown); similar affinity to A-box; Buffer D: 20 mM Tris-HCl pH 7.5, 200 mM KCl, 2 mM MgCl2, 10 mM DTT, 25 C (EMSA and nitrocellulose filter binding). As to conditions: protein: recombinant; tags: N-terminal His-tag, TEV-cleaved; label: 32P; blunt.

Data set [6] has as its target T12, Sfc1-DBD (C-terminal DNA-binding domain of Sfc1, residues 186-396), recombinant (Schizosaccharomyces pombe, UniProt O14229 186-396).
T12 construct: Sfc1, Schizosaccharomyces pombe, residues 186-396 (winged-helix domain 186-283 and WHI domain 284-396); The crystal structure (4BJI) used selenomethionine-substituted protein; Purification details are in the Supplemental Methods; source: E. coli, purified (Ni-NTA, TEV, ion exchange, no gel filtration); not shown: His-tag, N-terminal, cleaved
T12 sequence (looked up): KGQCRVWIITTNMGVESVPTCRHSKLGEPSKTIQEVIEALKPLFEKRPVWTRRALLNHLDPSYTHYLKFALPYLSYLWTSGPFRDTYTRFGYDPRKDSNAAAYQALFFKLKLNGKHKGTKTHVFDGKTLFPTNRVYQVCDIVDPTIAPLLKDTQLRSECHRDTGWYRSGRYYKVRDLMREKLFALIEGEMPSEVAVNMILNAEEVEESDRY
As to the kind of experiment: ITC; 25°C, VP-ITC; 50 mM HEPES pH 7.5, 150 mM NaCl, 2 mM β-mercaptoethanol; 10 µl injections of 200 µM peptide into 2 ml of 10 µM protein; data not shown. As to conditions: both partners purified. A general note: In ITC the heat of successive injections is recorded.

Where only a bound is given, the exact number is not on record here.

In data set [1], A-box non-coding ssDNA (nc-ss) had a binding signal (fold lower affinity than Sfc1-DBD) of 10.

B1: A-box dsDNA (25 bp) (dsDNA)
DNA 1: CGAAGTGGCCGAGTGGTCTATGGCG
DNA 2: CGCCATAGACCACTCGGCCACTTCG
As for B1, the binding signal is > 2 fold lower affinity than Sfc1-DBD in the data set with Sfc1-DBD R237A; > 2 fold lower affinity than Sfc1-DBD with Sfc1-DBD K294A; > 2 fold lower affinity than Sfc1-DBD with Sfc1-DBD R269A; > 2 fold lower affinity than Sfc1-DBD with Sfc1-DBD R269A/K294A; ~10 fold lower affinity than Sfc1-DBD in data set [4]. Further, the binding result was “binds” in [2], “no binding” with Sfc1 111-456, “no binding” in the data set with Sfc1 186-456 and “no binding” in data set [3].

B2: Sfc1-NT, smaller protease-resistant Sfc1 fragment (residues 1-107) (domain or fragment, Schizosaccharomyces pombe, UniProt O14229 1-107, looked up)
chain: MNSLKISDNEYALIEHPGFANNKDAFFQTLGGVQSIQKACQTSFQNPKQALLELNLRPKDKYHHPVQARVQSRNDLLVTIKKMDNSVQNVSRIRQVFLFRDMADFQY
notes: Sfc1, Schizosaccharomyces pombe, residues 1-107, assigned by electrospray mass spectrometry and peptide mass fingerprinting; also called smaller Sfc1 fragment; source: limited proteolysis of the purified Sfc1/Sfc7 heterodimer made in E. coli; not shown: His-tag, N-terminal, cleaved
For B2, the binding result in data set [5] is “binds”.

B3: B-box dsDNA (25 bp) (dsDNA)
DNA 1: CGACCCGGGTTCGATTCCCGGCCAA
DNA 2: TTGGCCGGGAATCGAACCCGGGTCG
Regarding B3, the binding result with Sfc1-DBD is recorded as “binds”.

B4: Sfc1_(435-456) synthetic peptide (22mer acidic Sfc1 tail peptide) (peptide)
peptide: QEHEGFEDLEEIDDDYDDIFGD
notes: Sfc1, Schizosaccharomyces pombe, the 22 C-terminal residues (435-456), pI 3.5; The methods call it Sfc1_(434-456); also called Sfc1_(434-456) peptide (methods); acidic tail peptide; source: synthetic peptide
In the case of B4, the Kd in data set [6] stood at 3000 ± 800 nM.

What is called Kd is a measure of binding affinity in units of concentration.
